# Data reported in patent US20120316071A1 (published 2012).
# Substitutions are numbered along the chain they refer to. Names and notes keep the numbering of the source.
# B1: Fab VH5-51_IGHD5-18*01>3_IGHJ4*01 G100K/G104T G24T/S28R/G35V (KT TRV) & V3-4_IGLJ1*01 (wildtype) (Fab, V domains shown)
# VH: EVQLVQSGAEVKKPGESLKISCKTSGYRFTSYWIVWVRQMPGKGLEWMGIIYPGDSDTRYSPSFQGQVTISADKSISTAYLQWSSLKASDTAMYYCARRKYSYTYDYFDYWGQGTLVTVSS
# VL: QTVVTQEPSFSVSPGGTVTLTCGLSSGSVSTSYYPSWYQQTPGQAPRTLIYSTNTRSSGVPDRFSGSILGNKAALTITGAQADDESDYYCVLYMGSGISYVFGTGTKVTVL
# notes: Fab; Expressed in E. coli with CH1 (plasmid A, His6 and Flag tags) and lambda CL (plasmid E); also called H:KT TRV & L:wt
# B2: Fab VH5-51_IGHD5-18*01>3_IGHJ4*01 G100K/G104T G24A/S28R/G35V (KT ARV) & V3-4_IGLJ1*01 V91L/S96P S52I (Fab, V domains shown)
# VH: B1 VH
# VL: B1 VL with S52I, V91L, S96P
# notes: Fab; Expressed in E. coli with CH1 (plasmid A, His6 and Flag tags) and lambda CL (plasmid E); also called G100K/G104T G24A/S28R/G35V & V91L/S96P S52I
# B3: Fab VH5-51_IGHD5-18*01>3_IGHJ4*01 G100K/G104T G24L/S28R/G35V (KT LRV) & V3-4_IGLJ1*01 V91L/S96P S52M (Fab, V domains shown)
# VH: B1 VH
# VL: B1 VL with S52M, V91L, S96P
# notes: Fab; Expressed in E. coli with CH1 (plasmid A, His6 and Flag tags) and lambda CL (plasmid E); also called G100K/G104T G24L/S28R/G35V & V91L/S96P S52M
# B4: Fab VH5-51_IGHD5-18*01>3_IGHJ4*01 G100K/G104T G24T/S28R/G35V (KT TRV) & V3-4_IGLJ1*01 V91L/S96P (LP) (Fab, V domains shown)
# VH: B1 VH
# VL: B1 VL with V91L, S96P
# notes: Fab; Expressed in E. coli with CH1 (plasmid A, His6 and Flag tags) and lambda CL (plasmid E); also called H:KT TRV & L:LP
# B5: Fab VH5-51_IGHD5-18*01>3_IGHJ4*01 G100K/G104T G24L/S28R/G35V (KT LRV) & V3-4_IGLJ1*01 V91L/S96P S52Q (Fab, V domains shown)
# VH: B1 VH
# VL: B1 VL with S52Q, V91L, S96P
# notes: Fab; Expressed in E. coli with CH1 (plasmid A, His6 and Flag tags) and lambda CL (plasmid E); also called G100K/G104T G24L/S28R/G35V & V91L/S96P S52Q
# B6: Fab VH5-51_IGHD5-18*01>3_IGHJ4*01 G100K/G104T G24L/S28R/G35V (KT LRV) & V3-4_IGLJ1*01 V91L/S96P S52T (Fab, V domains shown)
# VH: B1 VH
# VL: B1 VL with S52T, V91L, S96P
# notes: Fab; Expressed in E. coli with CH1 (plasmid A, His6 and Flag tags) and lambda CL (plasmid E); also called G100K/G104T G24L/S28R/G35V & V91L/S96P S52T
# B7: Fab VH5-51_IGHD5-18*01>3_IGHJ4*01 G100K/G104T (KT) & V3-4_IGLJ1*01 (wildtype) (Fab, V domains shown)
# VH: B1 VH with T24G, R28S, V35G
# VL: B1 VL
# notes: Fab; Expressed in E. coli with CH1 (plasmid A, His6 and Flag tags) and lambda CL (plasmid E); also called H:KT & L:wt; KT double mutant
# B8: Fab VH5-51_IGHD5-18*01>3_IGHJ4*01 G100K/G104T G24A/S28R/G35V (KT ARV) & V3-4_IGLJ1*01 V91L/S96P S52V (Fab, V domains shown)
# VH: B1 VH
# VL: B1 VL with S52V, V91L, S96P
# notes: Fab; Expressed in E. coli with CH1 (plasmid A, His6 and Flag tags) and lambda CL (plasmid E); The light-chain S52 variants were made on the KT TRV heavy chain (T0104); also called G100K/G104T G24A/S28R/G35V & V91L/S96P S52V
# B9: Fab VH5-51_IGHD5-18*01>3_IGHJ4*01 G100K & V3-4_IGLJ1*01 (wildtype) (Fab, V domains shown)
# VH: B1 VH with T24G, R28S, V35G, T104G
# VL: B1 VL
# notes: Fab; Expressed in E. coli with CH1 (plasmid A, His6 and Flag tags) and lambda CL (plasmid E); also called G100K & Wildtype
# B10: Fab VH5-51_IGHD5-18*01>3_IGHJ4*01 & V3-4_IGLJ1*01 (parental, wildtype) (Fab, V domains shown)
# VH: B1 VH with T24G, R28S, V35G, K100G, T104G
# VL: B1 VL
# notes: Fab; Expressed in E. coli with CH1 (plasmid A, His6 and Flag tags) and lambda CL (plasmid E); also called Wildtype & Wildtype; parent Hit Fab
# B11: Fab VH5-51_IGHD5-18*01>3_IGHJ4*01 G100K/G104T G24T/S28R/G35V (KT TRV) & V3-4_IGLJ1*01 V91L/S96P S52G (LP S52G) (Fab, V domains shown)
# VH: B1 VH
# VL: B1 VL with S52G, V91L, S96P
# notes: Fab; Expressed in E. coli with CH1 (plasmid A, His6 and Flag tags) and lambda CL (plasmid E); also called H:KT TRV & L:LP S52G
# B12: Fab VH5-51_IGHD5-18*01>3_IGHJ4*01 G100K/G104T G24A/S28R/G35V (KT ARV) & V3-4_IGLJ1*01 V91L/S96P S52P (Fab, V domains shown)
# VH: B1 VH
# VL: B1 VL with S52P, V91L, S96P
# notes: Fab; Expressed in E. coli with CH1 (plasmid A, His6 and Flag tags) and lambda CL (plasmid E); also called G100K/G104T G24A/S28R/G35V & V91L/S96P S52P
# B13: Fab VH5-51_IGHD5-18*01>3_IGHJ4*01 G100K/G104T G24T/S28R/G35V (KT TRV) & V3-4_IGLJ1*01 V91L/S96P S52L (Fab, V domains shown)
# VH: B1 VH
# VL: B1 VL with S52L, V91L, S96P
# notes: Fab; Expressed in E. coli with CH1 (plasmid A, His6 and Flag tags) and lambda CL (plasmid E); also called H:KT TRV & L:LP S52L
# B14: Fab VH5-51_IGHD5-18*01>3_IGHJ4*01 G100K/G104T G24T/S28R/G35V (KT TRV) & V3-4_IGLJ1*01 V91L/S96P S52Y (Fab, V domains shown)
# VH: B1 VH
# VL: B1 VL with S52Y, V91L, S96P
# notes: Fab; Expressed in E. coli with CH1 (plasmid A, His6 and Flag tags) and lambda CL (plasmid E); also called H:KT TRV & L:LP S52Y
# B15: Fab VH5-51_IGHD5-18*01>3_IGHJ4*01 G100K/G104T G24L/S28R/G35V (KT LRV) & V3-4_IGLJ1*01 V91L/S96P S52F (Fab, V domains shown)
# VH: B1 VH
# VL: B1 VL with S52F, V91L, S96P
# notes: Fab; Expressed in E. coli with CH1 (plasmid A, His6 and Flag tags) and lambda CL (plasmid E); also called G100K/G104T G24L/S28R/G35V & V91L/S96P S52F
# B16: Fab VH5-51_IGHD5-18*01>3_IGHJ4*01 G100K/G104T S28R (KT S28R) & V3-4_IGLJ1*01 (wildtype) (Fab, V domains shown)
# VH: B1 VH with T24G, V35G
# VL: B1 VL
# notes: Fab; Expressed in E. coli with CH1 (plasmid A, His6 and Flag tags) and lambda CL (plasmid E); also called H:KT S28R & L:wt
# Molecular target: T1, Recombinant Human DLL4 (delta-like protein 4) (human, UniProt Q9NR61 27-524)
# T1 construct: Bought recombinant human DLL4 coated on the ELISA plate; also called rHuman DLL4
# Test: ELISA, DLL4 coated on plate, Fab at 100 nM (2-fold dilution series), absorbance at 450 nm
row,ELISA signal,Binder
1,0.45,B1
2,1.04,B2
3,1.01,B3
4,1,B4
5,0.96,B5
6,0.99,B6
7,0.18,B7
8,0.95,B8
9,0.2,B9
10,0.17,B10
11,1.14,B11
12,1,B12
13,1.02,B13
14,0.9,B14
15,0.99,B15
16,0.26,B16

# Molecular target: T1, Recombinant Human DLL4 (delta-like …)
# Test: ELISA, DLL4 coated on plate, Fab at 12.5 nM (2-fold dilution series), absorbance at 450 nm
row,ELISA signal,Binder
1,0.23,B1
2,0.4,B2
3,0.41,B3
4,0.45,B4
5,0.47,B5
6,0.41,B6
7,0.18,B7
8,0.43,B8
9,0.19,B9
10,0.17,B10
11,0.63,B11
12,0.43,B12
13,0.43,B13
14,0.41,B14
15,0.42,B15
16,0.18,B16

# Molecular target: T1, Recombinant Human DLL4 (delta-like …)
# Test: ELISA, DLL4 coated on plate, Fab at 50 nM (2-fold dilution series), absorbance at 450 nm
row,ELISA signal,Binder
1,0.32,B1
2,0.82,B2
3,0.8,B3
4,0.81,B4
5,0.81,B5
6,0.79,B6
7,0.18,B7
8,0.74,B8
9,0.19,B9
10,0.16,B10
11,1.02,B11
12,0.79,B12
13,0.78,B13
14,0.72,B14
15,0.69,B15
16,0.23,B16

# Molecular target: T1, Recombinant Human DLL4 (delta-like …)
# Test: ELISA, DLL4 coated on plate, Fab at 25 nM (2-fold dilution series), absorbance at 450 nm
row,ELISA signal,Binder
1,0.26,B1
2,0.6,B2
3,0.59,B3
4,0.58,B4
5,0.67,B5
6,0.62,B6
7,0.16,B7
8,0.6,B8
9,0.18,B9
10,0.18,B10
11,0.9,B11
12,0.59,B12
13,0.58,B13
14,0.56,B14
15,0.49,B15
16,0.2,B16
